Our source for the Kd values is paper PMC6033261 (Methods in molecular biology (Clifton, N.J.), 2015).

This test addresses His-Rab7 (UniProt P51149 1-207). Briefly: bead-based flow cytometry.

His-Rab7, sequence (P51149 whole entry): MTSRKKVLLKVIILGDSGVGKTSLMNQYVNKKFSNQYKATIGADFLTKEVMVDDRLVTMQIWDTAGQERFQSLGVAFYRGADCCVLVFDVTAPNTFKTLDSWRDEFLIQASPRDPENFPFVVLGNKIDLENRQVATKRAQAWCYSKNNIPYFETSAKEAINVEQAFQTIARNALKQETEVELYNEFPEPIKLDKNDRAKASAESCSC

B1: GST-RILP (Rab binding domain of RILP only) (domain or fragment, UniProt Q96NA2 240-316, looked up)
chain: QCRFSREEFEQILQERNELKAKVFLLKEELAYFQRELLTDHRVPGLLLEAMKVAVRKQRKKIKAKMLGTPEEAESSE
On to B1, for which the Kd (usually the equilibrium constant for the complex coming apart) came to 1870 ± 250 nM.
